Assay results taken from paper PMC11767649.

Target: rhRKIP C133A mutant, histidine-tagged (human) (UniProt P30086)
Experiment: non-reducing SDS-PAGE; purified rhRKIP in sample loading buffer without β-mercaptoethanol or boiling; Coomassie Brilliant Blue staining or anti-His immunoblot

stoichiometry N: 2
Substance: rhRKIP C133A mutant, histidine-tagged (from UniProt P30086 1-187) (natural protein)
